In PMC11279866, “Synthesis, Radiolabeling, and Biodistribution Study of a Novel DOTA-Peptide for Targeting Vascular Endothelial Growth Factor Receptors in the Molecular Imaging of Breast Cancer” (Pharmaceutics, 2024):
Like-named read-outs stand apart in the source and are kept apart here. Where a SMILES comes first, the peptide text is derived from it. Bridges are numbered along the chain shown (N, C = ends). The star is where a group is joined. DOTA = O=C(O)CN1CCN(CC(=O)O)CCN(CC(=O)*)CCN(CC(=O)O)CC1; Ahx = NCCCCCC(=O)O

Assays:
[1] = n-octanol/water partition coefficient (log p); format: physicochemical; conditions: shake-flask n-octanol/water; 100 μL radiopeptide in 0.99 mL water + 1 mL n-octanol; vortex 5 min, room temperature; centrifugation 10 min 5000 rpm; radioactivity read-out; mean ± SD (n = 3)
Procedure: A total of 100 μL of the radiolabeled peptide was aliquoted into vials containing 0.99 mL of water and 1 mL of n-octanol, which was then mixed by a vortex mixer (Mabnagene, Tehran, Iran) at room temperature for 5 min. Aqueous and organic layers were separated by centrifugation (10 min, 5000 rpm). Then, 500 μL aliquots of each layer were transferred to the new vials, and the radioactivity of both was measured in a dose calibrator (Capintec CRC®-25, Florham Park, NJ, USA).
The lipid–water partition coefficient for the [^68Ga]Ga-DOTA-Ahx-peptide was estimated in the n-octanol water system, using a […]. Approximately, the log p value was −2.17 ± 0.072, considering the below formula (Equation (2)). The result is reported as mean ± SD (n = 3). […] (2) […]

4T1 cells = format: binding, mouse BALB/c
Procedure: (§1) The 4T1 cell line was acquired from the Pasteur Institute of Iran (4T1 is a breast cancer cell line derived from the mammary gland tissue of a mouse BALB/c. (NCBICode: C604/the Pasteur Institute/Tehran/Iran). 4T1 cells are epithelial and can overexpress VEGFRs). The cells were cultured at 37 °C with 5% CO2 in Dulbecco’s modified Eagle’s medium (Gibco, Life Technologies, Carlsbad, CA, USA) supplemented with 10% fetal bovine serum (Gibco) and 1% antibiotics (penicillin and streptomycin). To develop tumor-bearing mice models, Balb/C mice (female, 6–8-week-old, 20–25 g) were purchased from the Institute of Biochemistry and Biophysics (IBB) (University of Tehran, Iran) and kept under the controlled conditions of temperature, humidity, and light/dark cycles with appropriate food and water (approved by the ethics committee of TUMS). Initially, the cells were harvested from the culture flask surface by 10 mM EDTA and centrifuged. After resuspending in serum-free culture medium, 1 × 10^6 cells/100 μL were injected subcutaneously into the right shoulder of mice. In the next 10 days, the tumor size was ready to use for imaging and biodistribution studies with a volume of […] [54].
A competitive binding assay was conducted to determine the value of 50% inhibitory concentration (IC50) for the [^68Ga]Ga-DOTA-Ahx-peptide, using the non-radiolabeled peptide as a competitor. […]

[2] = Ex vivo biodistribution in normal BALB/c mice; conditions: mouse, total radioactivity, mean ± SD (n = 3); for tissue uptake / tissue uptake at 0.5 h: iv, 840 kBq; for tissue uptake: healthy tissues, time point not stated; for tissue uptake at 0.5 h: normal mice
Procedure: (§2) The biodistribution of [^68Ga]Ga-DOTA-Ahx-peptide was evaluated in normal and tumor-bearing BALB/c mice. Therefore, 840 kBq in 100 μL saline was injected via the caudal vein of the mice. The animal was euthanized at different time points of 15, 30, 60, and 90 min post-injection using ketamine and xylazine in lethal doses. First, the blood sample was taken from the heart, and then organs (heart, kidney, liver, lungs, etc.) were removed. Tissues were rinsed and weighed, and the radioactivity of each organ was measured using a gamma counter. The organ uptake can be reported as the percentage of injected dose per gram of tissue (ID%/g). A 500-fold excess of DOTA-Ahx-ECRPPDDGLC was used 30 min before radiolabeled peptide injection for the blocking experiment.
Comparative biodistribution studies were conducted in healthy (Figure 7a) and subcutaneously (s.c) tumor-bearing mice (Figure 7b). […] Relatively high uptake was also observed in healthy tissues such as the spleen and intestine (3.7 ± 0.29%ID/g and 5.07 ± 0.21%ID/g, respectively). At 30 min, the highest accumulation of the radioactive compound was measured in the kidneys, which was 9.2 ± 0.53%ID/g and increased over time up to 90 min. Considering kidney uptake, this tracer is excreted mainly from this organ. The distribution profile of the [^68Ga]Ga-DOTA-Ahx-peptide in tumor-bearing mice had some similarity to the normal mice. Kidneys in tumor-bearing mice were also the critical organ with the highest radioactivity concentration at different time points (5.62 ± 0.31%ID/g at 30 min and 6.35 ± 0.54%ID/g at 90 min). This increasing profile has confirmed the quick washing-out of important organs such as the heart, lungs, liver, stomach, and intestine, which had relatively high radioactivity uptake. […] The maximum tumor uptake was 30 min after injection (1.51 ± 0.22%ID/g) and decreased by 90 min.
Figure 7 The biodistribution of the [^68Ga]Ga-DOTA-Ahx-peptide in (a) normal and (b) tumor-bearing BALB/c mice. The data are described as %ID/g, calculated at 30, 60, and 90 min after injection. The results are reported as mean ± SD (n = 3). (c) Tumor-to-organ ratio at 30, 60, and 90 min after IV injection. The uptake profile of (d) blood, (e) muscle, (f) liver, and (g) kidneys in comparison with the tumor from 15 to 90 min.

[3] = Ex vivo biodistribution in 4T1 tumor-bearing BALB/c mice, with blocking experiment; conditions: female, mouse, total radioactivity, mean ± SD (n = 3); for tissue uptake at 0.5 h: 30 min p.i.; for tissue uptake at 1.5 h: 90 min p.i.
Procedure: as §1, §2
Comparative biodistribution studies were conducted in healthy (Figure 7a) and subcutaneously (s.c) tumor-bearing mice (Figure 7b). […] At 30 min, the highest accumulation of the radioactive compound was measured in the kidneys, which was 9.2 ± 0.53%ID/g and increased over time up to 90 min. […] Kidneys in tumor-bearing mice were also the critical organ with the highest radioactivity concentration at different time points (5.62 ± 0.31%ID/g at 30 min and 6.35 ± 0.54%ID/g at 90 min). This increasing profile has confirmed the quick washing-out of important organs such as the heart, lungs, liver, stomach, and intestine, which had relatively high radioactivity uptake. […]
Figure 7 The biodistribution of the [^68Ga]Ga-DOTA-Ahx-peptide in (a) normal and (b) tumor-bearing BALB/c mice. The data are described as %ID/g, calculated at 30, 60, and 90 min after injection. […]

[4] = blood, IV 840 kBq, read-out: blood uptake
[5] = kidney, iv, 840 kBq, read-out: kidney uptake

With CC(C)C[C@@H]1NC(=O)CNC(=O)[C@H](CC(=O)O)NC(=O)[C@H](CC(=O)O)NC(=O)[C@@H]2CCCN2C(=O)[C@@H]2CCCN2C(=O)[C@H](CCCNC(=N)N)NC(=O)[C@@H](NC(=O)[C@H](CCC(=O)O)NC(=O)CCCCCNC(=O)CN2CCN(CC(=O)O)CCN(CC(=O)O)CCN(CC(=O)O)CC2)CSSC[C@@H](C(=O)O)NC1=O [[^68Ga]Ga-DOTA-Ahx-VGB3, metal not drawn] ({DOTA-Ahx}-ECRPPDDGLC-OH; disulfide 2-10) as the compound, how does the “log p (n-octanol/water partition coefficient)” value [1] read?
The value was ~−2.17 ± 0.072.

And the IC50 (4T1 cells)?
The IC50 was ~867 nM.

And the tissue uptake at 1.5 h ([2]; blood, healthy mice, 90 min p.i., IV 840 kBq)?
The tissue uptake at 1.5 h was 0.32 ± 0.036 %ID/g.

And the tissue uptake ([2]; intestine, read-out: intestine uptake)?
The tissue uptake was 5.07 ± 0.21 %ID/g.

And the tissue uptake at 0.5 h ([2]; kidney, 30 min p.i., read-out: kidney uptake)?
The tissue uptake at 0.5 h was 9.2 ± 0.53 %ID/g.

What about the tissue uptake at 0.5 h ([2]; liver, 30 p.i., read-out: liver uptake (maximum)) of the same compound?
The tissue uptake at 0.5 h was 4.41 ± 0.56 %ID/g.

What about the tissue uptake ([2]; spleen, read-out: spleen uptake) of the same compound?
Its tissue uptake is 3.7 ± 0.29 %ID/g.

What about the tissue uptake at 0.5 h [3, 4] of the same compound?
Its tissue uptake at 0.5 h is 1.4 ± 0.18 %ID/g.

What about the tissue uptake at 1.5 h [3, 4] of the same compound?
The tissue uptake at 1.5 h was 0.22 ± 0.06 %ID/g.

And the tissue uptake at 0.5 h [3, 5]?
Its tissue uptake at 0.5 h is 5.62 ± 0.31 %ID/g.

And the tissue uptake at 1.5 h [3, 5]?
Its tissue uptake at 1.5 h is 6.35 ± 0.54 %ID/g.
